Measurements taken from the supplement of paper PMC10567573.

B1: IFRG15 (parent)
chain: INRADYCPECYPDNPANRSLVLPW

Variants of: B1
Assay: protein stability index of a GFP-peptide fusion (GPS, HEK-293T) (PSI 1-6); higher = more stable
Conditions: c terminus: a fixed tail appended
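Further: lentivirally expressed fusions sorted by FACS into six bins by GFP to DsRed ratio, PSI derived from sequencing read proportions per bin multiplied by bin number.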

| Variant | protein stability index |
| --- | --- |
| ANRADYCPECYPDNPANRSLVLPW | 2.15 |
| FNRADYCPECYPDNPANRSLVLPW | 2.34 |
| NNRADYCPECYPDNPANRSLVLPW | 3.18 |
| TNRADYCPECYPDNPANRSLVLPW | 1.74 |
| GNRADYCPECYPDNPANRSLVLPW | 2.05 |
| QNRADYCPECYPDNPANRSLVLPW | 2.26 |
| INRVDYCPECYPDNPANRSLVLPW | 1.83 |
| INRSDYCPECYPDNPANRSLVLPW | 2.28 |
| INRLDYCPECYPDNPANRSLVLPW | 2.09 |
| INRMDYCPECYPDNPANRSLVLPW | 1.51 |
| INRWDYCPECYPDNPANRSLVLPW | 1.68 |
| INREDYCPECYPDNPANRSLVLPW | 2.48 |
| INRGDYCPECYPDNPANRSLVLPW | 2.55 |
| INRNDYCPECYPDNPANRSLVLPW | 2.2 |
| INRYDYCPECYPDNPANRSLVLPW | 2.63 |
| INRCDYCPECYPDNPANRSLVLPW | 1.78 |
| INRHDYCPECYPDNPANRSLVLPW | 1.65 |
| INRADYCKECYPDNPANRSLVLPW | 2.47 |
| INRADYCAECYPDNPANRSLVLPW | 1.27 |
| INRADYCEECYPDNPANRSLVLPW | 2.34 |
| INRADYCQECYPDNPANRSLVLPW | 2.48 |
| INRADYCPECYPDNPAPRSLVLPW | 1.89 |
| INRADYCPECYPDNPAIRSLVLPW | 2.25 |
| INRADYCPECYPDNPAWRSLVLPW | 1.6 |

| Variant | protein stability index |
| --- | --- |
| INRADYCPECYPDNPAHRSLVLPW | 2.04 |
| INRADYCPECYPDCPANRSLVLPW | 2.2 |
| INRADYCPECYPDEPANRSLVLPW | 2.64 |
| INRADYCPECYPDAPANRSLVLPW | 2.31 |
| INRADYCPECYPDIPANRSLVLPW | 1.53 |
| INRADYCPECYPDGPANRSLVLPW | 2.83 |
| INRADYCPECYPDTPANRSLVLPW | 1.6 |
| INRADYCPECYPDQPANRSLVLPW | 1.86 |
| INRADYCPECYPDLPANRSLVLPW | 1.67 |
| INRADYCPECYPDYPANRSLVLPW | 2.08 |
| INRADYCPECYPDNPANRSTVLPW | 2.57 |
| INRADYCPECYPDNPANRSKVLPW | 2.27 |
| INRADYCPECYPDNPANRSSVLPW | 2.28 |
| INRADYCPECYPDNPANRSGVLPW | 2.48 |
| INRADYCPECYPDNPANRSQVLPW | 2.02 |
| INRADYCPECYPDNPANRSHVLPW | 2.4 |
| INRADYCPECYPDNPANRSEVLPW | 2.9 |
| INRADYCPECYPDNPANRSLTLPW | 2.43 |
| INRADYCPECYPDNPANRSLKLPW | 1.98 |
| INRADYCPECYPDNPANRSLGLPW | 2.69 |
| INRADYCPECYPDNPANRSLRLPW | 1.83 |
| INRADYCPECYPDNPANRSLALPW | 2.54 |
| INRADYCPECYPDNPANRSLWLPW | 1.29 |
| INRADYCPECYPDNPANRSLFLPW | 1.54 |

| Variant | protein stability index |
| --- | --- |
| INRADYCPECYPDNPANRSLSLPW | 1.97 |
| INRADYCPECYPDNPANRSLYLPW | 1.99 |
| INRADYCPECYPDNPANRSLELPW | 2.29 |
| INRADYCPECYADNPANRSLVLPW | 2.04 |
| INRADYCPECYQDNPANRSLVLPW | 2.11 |
| INRADYCPECYGDNPANRSLVLPW | 2.69 |
| INRADYCPECYVDNPANRSLVLPW | 1.84 |
| INRADYCPECYLDNPANRSLVLPW | 1.9 |
| INRADYCPECYSDNPANRSLVLPW | 2.03 |
| INRADYCPECYYDNPANRSLVLPW | 2.26 |
| INRADSCPECYPDNPANRSLVLPW | 3.25 |
| INRADPCPECYPDNPANRSLVLPW | 3.33 |
| INRADECPECYPDNPANRSLVLPW | 2.52 |
| INRADMCPECYPDNPANRSLVLPW | 2.21 |
| INRADFCPECYPDNPANRSLVLPW | 2.22 |
| INRADACPECYPDNPANRSLVLPW | 2.62 |
| INRADDCPECYPDNPANRSLVLPW | 2.9 |
| INRADKCPECYPDNPANRSLVLPW | 2.66 |
| INRADRCPECYPDNPANRSLVLPW | 2.44 |
| INRADYCPECKPDNPANRSLVLPW | 2.27 |
| INRADYCPECDPDNPANRSLVLPW | 3.28 |
| INRADYCPECQPDNPANRSLVLPW | 2.58 |
| INRADYCPECRPDNPANRSLVLPW | 2.72 |
| INRADYCPECAPDNPANRSLVLPW | 1.96 |

| Variant | protein stability index |
| --- | --- |
| INRADYCPECSPDNPANRSLVLPW | 2.69 |
| INRADYCPECFPDNPANRSLVLPW | 2.2 |
| INRADYCPECNPDNPANRSLVLPW | 2.23 |
| INRAHYCPECYPDNPANRSLVLPW | 2.09 |
| INRASYCPECYPDNPANRSLVLPW | 2.07 |
| INRARYCPECYPDNPANRSLVLPW | 2.39 |
| INRAGYCPECYPDNPANRSLVLPW | 1.91 |
| INRALYCPECYPDNPANRSLVLPW | 1.6 |
| INRAIYCPECYPDNPANRSLVLPW | 1.99 |
| INRAQYCPECYPDNPANRSLVLPW | 1.93 |
| INRAAYCPECYPDNPANRSLVLPW | 1.78 |
| INRANYCPECYPDNPANRSLVLPW | 1.88 |
| INRACYCPECYPDNPANRSLVLPW | 1.92 |
| INRAPYCPECYPDNPANRSLVLPW | 1.91 |
| INRAFYCPECYPDNPANRSLVLPW | 2.03 |
| IFRADYCPECYPDNPANRSLVLPW | 1.55 |
| IIRADYCPECYPDNPANRSLVLPW | 1.7 |
| IHRADYCPECYPDNPANRSLVLPW | 1.84 |
| IDRADYCPECYPDNPANRSLVLPW | 2.64 |
| ICRADYCPECYPDNPANRSLVLPW | 3.06 |
| IYRADYCPECYPDNPANRSLVLPW | 1.7 |
| IKRADYCPECYPDNPANRSLVLPW | 2.29 |
| INRADYCPECYPDNPANRSLVLKW | 1.71 |
| INRADYCPECYPDNPANRSLVLQW | 1.87 |

| Variant | protein stability index |
| --- | --- |
| INRADYCPECYPDNVANRSLVLPW | 1.51 |
| INRADYCPECYPDNLANRSLVLPW | 1.97 |
| INRADYCPECYPDNMANRSLVLPW | 2.19 |
| INRADYCPECYPDNSANRSLVLPW | 2.94 |
| INRADYCPECYPDNTANRSLVLPW | 1.9 |
| INRADYCPECYPDNWANRSLVLPW | 2.19 |
| INRADYCPECYPDNHANRSLVLPW | 2.46 |
| INRADYCPECYPDNRANRSLVLPW | 2.07 |
| INRADYCPECYPDNGANRSLVLPW | 2.48 |
| INRADYCPECYPDNPANHSLVLPW | 2.17 |
| INRADYCPECYPDNPANCSLVLPW | 1.81 |
| INRADYCPECYPDNPANQSLVLPW | 1.99 |
| INRADYCPECYPDNPANTSLVLPW | 1.35 |
| INRADYCPECYPDNPANVSLVLPW | 1.9 |
| INRADYCPECYPDNPANPSLVLPW | 2.38 |
| INRADYCPECYPDNPANKSLVLPW | 2.83 |
| INRADYCPECYPDNPANNSLVLPW | 2.22 |
| INRADYCPECYPDNPANFSLVLPW | 2.32 |
| INRADYCPEFYPDNPANRSLVLPW | 2.66 |
| INRADYCPEHYPDNPANRSLVLPW | 2.6 |
| INRADYCPEQYPDNPANRSLVLPW | 3.09 |
| INRADYCPEVYPDNPANRSLVLPW | 2.32 |
| INRADYCPERYPDNPANRSLVLPW | 2.29 |
| INRADYCPETYPDNPANRSLVLPW | 2.35 |

| Variant | protein stability index |
| --- | --- |
| INRADYCPEKYPDNPANRSLVLPW | 2.59 |
| INRADYCPEDYPDNPANRSLVLPW | 3.65 |
| INRADYCPEPYPDNPANRSLVLPW | 3.17 |
| INRADYCPELYPDNPANRSLVLPW | 2.31 |
| INRADYCPEEYPDNPANRSLVLPW | 2.83 |
| INRADYCPFCYPDNPANRSLVLPW | 1.78 |
| INRADYCPPCYPDNPANRSLVLPW | 3.15 |
| INRADYCPWCYPDNPANRSLVLPW | 1.58 |
| INRADYCPGCYPDNPANRSLVLPW | 1.66 |
| INRADYCPKCYPDNPANRSLVLPW | 1.63 |
| INRADYCPMCYPDNPANRSLVLPW | 1.82 |
| INRADYCPQCYPDNPANRSLVLPW | 1.62 |
| INRADYCPVCYPDNPANRSLVLPW | 3.07 |
| INRADYCPACYPDNPANRSLVLPW | 2.71 |
| INRADYCPECYPDNPANRSLVPPW | 2.93 |
| INRADYCPECYPDNPANRSLVCPW | 2.12 |
| INRADYCPECYPDNPANRSLVFPW | 2.05 |
| INRADYCPECYPDNPANRSLVNPW | 2.65 |
| INRADYCPECYPDNPANRSLVIPW | 1.72 |
| INRADYCPECYPDNPANRSLVYPW | 2.17 |
| INRADYCPECYPDNPANRSLVEPW | 2.44 |
| INRADYCPECYPDNPANRSLVQPW | 2.35 |
| INRADYWPECYPDNPANRSLVLPW | 1.43 |
| INRADYHPECYPDNPANRSLVLPW | 2.13 |

| Variant | protein stability index |
| --- | --- |
| INRADYTPECYPDNPANRSLVLPW | 2.68 |
| INRADYVPECYPDNPANRSLVLPW | 2.34 |
| INRADYIPECYPDNPANRSLVLPW | 2.27 |
| INRADYQPECYPDNPANRSLVLPW | 2.74 |
| INRADYGPECYPDNPANRSLVLPW | 2.62 |
| INRADYCPECYPDNPANRSLVLPA | 2.19 |
| INRADYCPECYPDNPANRSLVLPN | 2.46 |
| INRADYCPECYPDNPANRSLVLPL | 1.8 |
| INRADYCPECYPDNPANRSLVLPC | 2.31 |
| INRADYCPECYPDNPANRSLVLPQ | 2.24 |
| INRADYCPECYPVNPANRSLVLPW | 1.63 |
| INRADYCPECYPANPANRSLVLPW | 1.94 |
| INRADYCPECYPCNPANRSLVLPW | 1.97 |
| INRADYCPECYPNNPANRSLVLPW | 2.08 |
| INRADYCPECYPYNPANRSLVLPW | 1.57 |
| INRADYCPECYPWNPANRSLVLPW | 2.18 |
| INRADYCPECYPFNPANRSLVLPW | 1.56 |
| INRADYCPECYPTNPANRSLVLPW | 2.37 |
| INRADYCPECYPGNPANRSLVLPW | 1.98 |
| INRADYCPECYPPNPANRSLVLPW | 2.11 |
| INRADYCPECYPDNPANRVLVLPW | 1.41 |
| INRADYCPECYPDNPANRQLVLPW | 2 |
| INRADYCPECYPDNPANRHLVLPW | 2.07 |
| INRADYCPECYPDNPANRTLVLPW | 1.77 |

| Variant | protein stability index |
| --- | --- |
| INRADYCPECYPDNPANRILVLPW | 1.72 |
| INRADYCPECYPDNPANRDLVLPW | 2.3 |
| INRADYCPECYPDNPANRCLVLPW | 1.81 |
| INRADYCPECYPDNPCNRSLVLPW | 1.69 |
| INRADYCPECYPDNPKNRSLVLPW | 1.94 |
| INRADYCPECYPDNPLNRSLVLPW | 1.86 |
| INRADYCPECYPDNPHNRSLVLPW | 1.71 |
| INRADYCPECYPDNPNNRSLVLPW | 2.4 |
| INRADYCPECYPDNPFNRSLVLPW | 2.02 |
| INRADYCPECYPDNPRNRSLVLPW | 1.67 |
| INRADYCPECYPDNPSNRSLVLPW | 2.42 |
| INRADYCPECYPDNPTNRSLVLPW | 2.06 |
| INRADYCPECYPDNPINRSLVLPW | 1.6 |
| INRADYCPECYPDNPENRSLVLPW | 2.42 |
| INVADYCPECYPDNPANRSLVLPW | 1.74 |
| INFADYCPECYPDNPANRSLVLPW | 2.12 |
| INHADYCPECYPDNPANRSLVLPW | 2.39 |
| INGADYCPECYPDNPANRSLVLPW | 2.65 |
| INAADYCPECYPDNPANRSLVLPW | 2.42 |
| INTADYCPECYPDNPANRSLVLPW | 2.71 |
